Assay results as given in the nanobody polyreactivity screen of Harvey et al. (2022).

Assay: yeast display, Sf9 membrane polyspecificity reagent, FACS + sequencing; frameworks hold sequencing errors
In short: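 Polyreactivity labels are assigned by the sorting gate from which each nanobody was recovered. The gates were low and high (top ~1%), set on anti-HA fluorescence for expression and streptavidin fluorescence for reagent binding. Before sorting, galactose-induced (36–48 hours) yeast display cells were stained for 1 hour at 4 °C with 10% biotinylated, detergent-solubilized Sf9 membrane reagent.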

Which “polyreactivity (PSR sort gate)” value does the source give for “QVQLVESGGGLVQAGGSLRLSCAASGRTFRSDNAMGWYRQAPGKERELVAAISQGGGTYYADSVKGRFTISRDNAKNTVYLQMNSLKPEDTAVYYCARDAYYADPSLWYYTYDYWGQGTQVNVSS” here?
Its value is “low polyreactivity”.

With “QVQLVESGGGLVQAGGSLRLSCAASGRTFRSNAMGWYRQAPGKERELVATISGRGGSTYYADSVKGRFTISRDNAKNTVYLQMNSLKPEDTAVYYCAKRTTLIRDYEYWGQGTQVTVSS” as the sequence, how does the “polyreactivity (PSR sort gate)” value read?
The value was “high polyreactivity”.

With “QVQLVESGGGLVQAGGSLRLSCAASGRTFRSNTKGGYRQAPGKERELVAAISWSGTRTYYADSVKGRFTISRDNAKNSVYLQMNSLKPEDTAVYYCNAVGFDQPRYYYWGQGTQVTVSS” as the sequence, how does the “polyreactivity (PSR sort gate)” value read?
Its value is “high polyreactivity”.

For “QVQLVESGGGLVQAGGSLRLSCAASGRTFRSNVMRWYRQAPGKERELVASITWSGGTTYYADSVKGRFTISRDNAKNTVYLQMNSLKPEDTAVYYCNAADERSQGWVGYDHWGQCTQVTVSS”, which “polyreactivity (PSR sort gate)” value is on record?
The value was “low polyreactivity”.

Which “polyreactivity (PSR sort gate)” value does the source give for “QVQLVESGGGLVQAGGSLRLSCAASGRTFRSYAMGWYRQAPGKERELVAAISDGGSTNYADSVKGRFTISRDNAKNTVYLQMNSLKPEDTAVYYCAAEIFFAVFRFYYWGQGTQVTVSS” here?
Its value is “low polyreactivity”.

Which “polyreactivity (PSR sort gate)” value does the source give for “QVQLVESGGGLVQAGGSLRLSCAASGRTFRSYAMGWYRQAPGKERELVAAISRGGRTNYADSVKGRFTISRDNAKNTVYLQMNSLKPEDTAVYYCAARLPYLGGYDYWGQGTQVTVSS” here?
Its value is “high polyreactivity”.

With “QVQLVESGGGLVQAGGSLRLSCAASGRTFRSYTMGWYRQAPGKERELVAAIRTSSGSTYYADSVKGRFTISRDNAKNTVYLQMNSLKPEDSGVYYGAKTLLYPWFRTVAVDYWGQGTQVTVSS” as the sequence, how does the “polyreactivity (PSR sort gate)” value read?
Its value is “low polyreactivity”.

Which “polyreactivity (PSR sort gate)” value does the source give for “QVQLVESGGGLVQAGGSLRLSCAASGRTFRSYTMGWYRQAPGKERELVASITRSGVSTYYADSVKGRFTISRDNAKNTVYLQMNSLKPEDTAVYYCAAYSVFRSYDYWGQGTQVTVSS” here?
Its value is “high polyreactivity”.

For “QVQLVESGGGLVQAGGSLRLSCAASGRTFRTYAMGWYRQAPGKERELVAAISFSDGSTYYADSVKGRFTISRDNAKNTVYLQMNSLKPEDTAVYYCAKEYEYPYYIRYQVGYDFDYWGQGTEVTVSS”, which “polyreactivity (PSR sort gate)” value is on record?
Its value is “low polyreactivity”.

Which “polyreactivity (PSR sort gate)” value does the source give for “QVQLVESGGGLVQAGGSLRLSCAASGRTFRTYAMGWYRQAPGKERELVAAITSGGSTYYADSVKGRFTISRDNAKNTVYLQMNSLKPEDTAVYDCAAISTWGTKYDYWGQGTQVTVSS” here?
The value was “high polyreactivity”.

With “QVQLVESGGGLVQAGGSLRLSCAASGRTFRTYAMGWYRQAPGKERELVAAITTSGSSTYYADSVKGRFTISRDNAKNTVYLQMNSLKPEDTAVYYCAAARAAIVPGYYSWGQGTQVTVSS” as the sequence, how does the “polyreactivity (PSR sort gate)” value read?
The value was “low polyreactivity”.

Which “polyreactivity (PSR sort gate)” value does the source give for “QVQLVESGGGLVQAGGSLRLSCAASGRTFRTYTMGWYRQAPGKERELVAAISWSGSSTYYADSVKGRFTISRDNAKNTVYLQMNSLKPEDTAGYYCAARGLYDYGYWGQGTQVTVSS” here?
Its value is “high polyreactivity”.

Which “polyreactivity (PSR sort gate)” value does the source give for “QVQLVESGGGLVQAGGSLRLSCAASGRTFRVYAIGWYRQAPGKEREFVATISVRGGSTYYADSVKGRFTISRDNAKNTVYLQMNSLKPEDTAVYYCAADSYPYVYALYDSWGLGTQVTVSS” here?
The value was “low polyreactivity”.

With “QVQLVESGGGLVQAGGSLRLSCAASGRTFRVYAMGWYRQAPGKERELVAAINGGGSTNYADSVKGRFTISRDNAKNTVYLQMNSLKPEDTAVYYCIATGRRSKRIYDYWGQGTQVTVSS” as the sequence, how does the “polyreactivity (PSR sort gate)” value read?
Its value is “high polyreactivity”.

For “QVQLVESGGGLVQAGGSLRLSCAASGRTFRVYAMGWYRQAPGKERELVAAINGGGSTNYADSVKGRFTISRDNAKNTVYVQMNSLKPEDTAVYYCNATGRRSKRIYDYWGQGTQVTVSS”, which “polyreactivity (PSR sort gate)” value is on record?
The value was “high polyreactivity”.

For “QVQLVESGGGLVQAGGSLRLSCAASGRTFRVYAMGWYRQAPGKERELVAGIRSRGGSTYYADSVKGRFTISRDYAKNTVYLQMNSLKPEDTAVYYCAAGYYLPQAIYEYWGLGTQVTVSS”, which “polyreactivity (PSR sort gate)” value is on record?
The value was “high polyreactivity”.

With “QVQLVESGGGLVQAGGSLRLSCAASGRTFRWNAMGWYRQAPGKERELVASITVNGGSTSYADSVKGRFTISRDNAKNTVYLQMNSLKPEDTAVYYCNAYYTYWYPRYDYWGQGTQVTVSS” as the sequence, how does the “polyreactivity (PSR sort gate)” value read?
The value was “low polyreactivity”.

For “QVQLVESGGGLVQAGGSLRLSCAASGRTFRWNVMGWYRQAPGKERELVAAISSDGSTYYADSVKGRFTISGDNAKNTVYLQMNSLKPEDTAVYYCAAVVSYYFRYGGSAYKYGYWGQGTQVTVSS”, which “polyreactivity (PSR sort gate)” value is on record?
The value was “high polyreactivity”.

For “QVQLVESGGGLVQAGGSLRLSCAASGRTFRWYAMGWYRQAPGKERELVAAIRSGGRTYYADSVKGRFTISRDNAKNTVYLQMNSLKPEDTAVYYCAALAVTYRYDYWGQGTQVTVSS”, which “polyreactivity (PSR sort gate)” value is on record?
Its value is “high polyreactivity”.

For “QVQLVESGGGLVQAGGSLRLSCAASGRTFRWYAMGWYRQAPGKERELVAAITSDGRTYYADSVKGRFTISRDNAKNTVYLQMNSLNPEDTAVYYCNAACRYAFPFGYNYWGQGTQVTVSS”, which “polyreactivity (PSR sort gate)” value is on record?
Its value is “high polyreactivity”.

With “QVQLVESGGGLVQAGGSLRLSCAASGRTFRWYTMGWYRQAPGKEREFVAAITWSGSSTNYADSVKGRFTISRDNAKNTVYLQMNSLKPEDTAVYYCAAENRRRRDDYWGQGTQVTVSS” as the sequence, how does the “polyreactivity (PSR sort gate)” value read?
Its value is “high polyreactivity”.

For “QVQLVESGGGLVQAGGSLRLSCAASGRTFRYNAMGWYRQAPGKERELVAAINWNGGSTYYADSVKGRFTISRDNAKNTGYLQMHSLKPEDTAVYYCNADFYHRYDWGQGTQVTGSS”, which “polyreactivity (PSR sort gate)” value is on record?
The value was “high polyreactivity”.

Which “polyreactivity (PSR sort gate)” value does the source give for “QVQLVESGGGLVQAGGSLRLSCAASGRTFRYNAMGWYRQAPGKERELVAAISGRGSSTYYADSVKGRFTISRDNAKNTVYLQMNSLKPEDTAVYYCAADRFRLYVGGWWYDYWGQGTQVTVSS” here?
Its value is “high polyreactivity”.

For “QVQLVESGGGLVQAGGSLRLSCAASGRTFRYNAMGWYRQAPGKERELVAAISGRGSSTYYSDSVKGRFTISRDNAKNTVYLQMNSLTPEDTAVYYCAALPASVRRPAWHDYWGQGTQVTVSS”, which “polyreactivity (PSR sort gate)” value is on record?
The value was “high polyreactivity”.

Which “polyreactivity (PSR sort gate)” value does the source give for “QVQLVESGGGLVQAGGSLRLSCAASGRTFRYNAMGWYRQAPGKERELVADITFSGGNTYYADSVKGRFTISRDNAKNTVYLQMNSLKPEDTAVYYCAKRRYYTGGMDYWGQGTQVTVSS” here?
The value was “low polyreactivity”.

For “QVQLVESGGGLVQAGGSLRLSCAASGRTFRYNAMGWYRQAPGKERELVAGITWRGGRTYYADSVKGRFTISRDNAKNTVYLQMNSLKPEDTAVYYCNTAGYYWLHYTMDYWGQGTQVTVSS”, which “polyreactivity (PSR sort gate)” value is on record?
The value was “high polyreactivity”.

With “QVQLVESGGGLVQAGGSLRLSCAASGRTFRYNAMGWYRQAPGKERELVASIRYSSASTYYADSVKGRFTISRDNAKNTVYLQMNSLKPEDTAVYYCAASWYPVIVGYDYWGQGTQVTVSS” as the sequence, how does the “polyreactivity (PSR sort gate)” value read?
The value was “high polyreactivity”.

For “QVQLVESGGGLVQAGGSLRLSCAASGRTFRYNAMGWYRQAPGKERELVATISSSGGSTSYADSVKGRFTISRDNAKNTVYLQMNSLKREDTAVYYCNKRRLVAPGNGMDSWGQGTQVTVSS”, which “polyreactivity (PSR sort gate)” value is on record?
The value was “low polyreactivity”.

Which “polyreactivity (PSR sort gate)” value does the source give for “QVQLVESGGGLVQAGGSLRLSCAASGRTFRYNTMGWYRQAPGKERELVAITYRGGSTYADSVKGRFTISRDNAKNTVYLQMNSLKPEDTAVYYCAKVVNWCRGYGGTDHYYWGQGTQVTVSS” here?
The value was “high polyreactivity”.

Which “polyreactivity (PSR sort gate)” value does the source give for “QVQLVESGGGLVQAGGSLRLSCAASGRTFRYNVMGWYRQAPGKERELVAAITYSGGRTYYADSVKGRFTISRDNVKNTVYLQMNSLKPEDTAVYYCAALSAPGYGRYNYWGQGTQVTVSS” here?
The value was “high polyreactivity”.

With “QVQLVESGGGLVQAGGSLRLSCAASGRTFRYYAKGWYRPAPGTERELVADISSTGRTYYADSVKGRFTISRDNAKNTVYLQMNSLKPEDTAVYYCNADYFFEFDYWGQGTQVTVSS” as the sequence, how does the “polyreactivity (PSR sort gate)” value read?
The value was “low polyreactivity”.

For “QVQLVESGGGLVQAGGSLRLSCAASGRTFRYYAMAWYRQAPGKERELVAAIRSGGITNYADSVKGRFTISLDNAKYTVYLQMNRLKPEDTAVYYCAQAIRGHYWGQGTQVTVSS”, which “polyreactivity (PSR sort gate)” value is on record?
Its value is “high polyreactivity”.
